For test [1], the target named is T1, endogenous TET1 in C4-2CON and C4-2ENZ-R cells (human, UniProt Q8NFU7 1-2136, limits assumed).
T1 construct: Endogenous protein in cell lysate for co-IP
Put plainly: co-immunoprecipitation of endogenous proteins, C4-2CON and C4-2ENZ-R cells.

The target of test [2] is T2, endogenous TET3 in C4-2CON and C4-2ENZ-R cells (human, UniProt O43151 1-1795, limits assumed).
T2 construct: Endogenous protein in cell lysate for co-IP
The description is as above.

T2 sequence (O43151 whole entry): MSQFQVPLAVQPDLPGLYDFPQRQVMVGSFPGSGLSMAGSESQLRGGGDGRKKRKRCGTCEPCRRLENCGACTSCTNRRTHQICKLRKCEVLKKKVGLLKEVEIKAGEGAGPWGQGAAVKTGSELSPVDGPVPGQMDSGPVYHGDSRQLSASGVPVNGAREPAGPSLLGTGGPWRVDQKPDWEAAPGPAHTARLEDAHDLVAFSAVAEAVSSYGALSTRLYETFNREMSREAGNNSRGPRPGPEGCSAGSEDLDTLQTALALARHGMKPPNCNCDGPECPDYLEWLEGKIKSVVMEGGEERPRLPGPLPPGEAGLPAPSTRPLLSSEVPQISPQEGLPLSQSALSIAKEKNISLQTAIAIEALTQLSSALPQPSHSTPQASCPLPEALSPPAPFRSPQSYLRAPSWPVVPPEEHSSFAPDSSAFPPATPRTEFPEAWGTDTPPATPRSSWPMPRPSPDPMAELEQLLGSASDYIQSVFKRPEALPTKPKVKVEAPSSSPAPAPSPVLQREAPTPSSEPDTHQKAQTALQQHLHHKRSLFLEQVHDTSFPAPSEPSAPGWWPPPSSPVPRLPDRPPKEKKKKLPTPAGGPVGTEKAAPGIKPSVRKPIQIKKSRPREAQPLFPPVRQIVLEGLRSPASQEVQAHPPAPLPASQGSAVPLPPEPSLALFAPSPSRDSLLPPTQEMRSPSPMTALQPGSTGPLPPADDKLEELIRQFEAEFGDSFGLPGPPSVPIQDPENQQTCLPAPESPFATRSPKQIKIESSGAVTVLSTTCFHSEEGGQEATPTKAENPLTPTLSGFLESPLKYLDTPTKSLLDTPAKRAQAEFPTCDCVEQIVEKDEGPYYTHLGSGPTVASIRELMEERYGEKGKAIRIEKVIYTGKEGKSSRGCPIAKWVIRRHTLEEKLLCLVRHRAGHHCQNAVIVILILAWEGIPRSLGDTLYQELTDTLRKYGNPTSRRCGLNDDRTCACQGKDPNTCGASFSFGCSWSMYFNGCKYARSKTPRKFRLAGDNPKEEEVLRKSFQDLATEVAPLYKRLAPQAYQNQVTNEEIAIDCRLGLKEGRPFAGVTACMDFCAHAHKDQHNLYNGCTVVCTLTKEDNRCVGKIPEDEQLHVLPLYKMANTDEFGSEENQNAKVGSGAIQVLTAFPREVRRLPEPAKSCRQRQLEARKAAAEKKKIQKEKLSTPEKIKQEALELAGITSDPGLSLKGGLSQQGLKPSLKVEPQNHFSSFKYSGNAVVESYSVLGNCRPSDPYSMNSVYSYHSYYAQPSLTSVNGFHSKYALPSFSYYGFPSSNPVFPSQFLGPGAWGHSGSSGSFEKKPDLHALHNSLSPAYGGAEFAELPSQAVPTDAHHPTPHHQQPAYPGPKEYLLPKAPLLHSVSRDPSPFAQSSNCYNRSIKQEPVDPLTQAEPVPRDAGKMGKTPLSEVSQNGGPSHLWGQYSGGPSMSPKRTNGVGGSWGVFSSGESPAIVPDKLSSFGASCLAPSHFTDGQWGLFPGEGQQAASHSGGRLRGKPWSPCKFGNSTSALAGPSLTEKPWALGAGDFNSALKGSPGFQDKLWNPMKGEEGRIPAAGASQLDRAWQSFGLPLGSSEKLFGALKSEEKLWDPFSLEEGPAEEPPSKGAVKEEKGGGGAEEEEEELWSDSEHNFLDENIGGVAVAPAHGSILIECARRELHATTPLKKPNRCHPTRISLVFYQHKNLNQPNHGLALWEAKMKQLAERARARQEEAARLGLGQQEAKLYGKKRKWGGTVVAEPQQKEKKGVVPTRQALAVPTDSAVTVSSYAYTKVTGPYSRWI
T1 sequence (Q8NFU7 whole entry): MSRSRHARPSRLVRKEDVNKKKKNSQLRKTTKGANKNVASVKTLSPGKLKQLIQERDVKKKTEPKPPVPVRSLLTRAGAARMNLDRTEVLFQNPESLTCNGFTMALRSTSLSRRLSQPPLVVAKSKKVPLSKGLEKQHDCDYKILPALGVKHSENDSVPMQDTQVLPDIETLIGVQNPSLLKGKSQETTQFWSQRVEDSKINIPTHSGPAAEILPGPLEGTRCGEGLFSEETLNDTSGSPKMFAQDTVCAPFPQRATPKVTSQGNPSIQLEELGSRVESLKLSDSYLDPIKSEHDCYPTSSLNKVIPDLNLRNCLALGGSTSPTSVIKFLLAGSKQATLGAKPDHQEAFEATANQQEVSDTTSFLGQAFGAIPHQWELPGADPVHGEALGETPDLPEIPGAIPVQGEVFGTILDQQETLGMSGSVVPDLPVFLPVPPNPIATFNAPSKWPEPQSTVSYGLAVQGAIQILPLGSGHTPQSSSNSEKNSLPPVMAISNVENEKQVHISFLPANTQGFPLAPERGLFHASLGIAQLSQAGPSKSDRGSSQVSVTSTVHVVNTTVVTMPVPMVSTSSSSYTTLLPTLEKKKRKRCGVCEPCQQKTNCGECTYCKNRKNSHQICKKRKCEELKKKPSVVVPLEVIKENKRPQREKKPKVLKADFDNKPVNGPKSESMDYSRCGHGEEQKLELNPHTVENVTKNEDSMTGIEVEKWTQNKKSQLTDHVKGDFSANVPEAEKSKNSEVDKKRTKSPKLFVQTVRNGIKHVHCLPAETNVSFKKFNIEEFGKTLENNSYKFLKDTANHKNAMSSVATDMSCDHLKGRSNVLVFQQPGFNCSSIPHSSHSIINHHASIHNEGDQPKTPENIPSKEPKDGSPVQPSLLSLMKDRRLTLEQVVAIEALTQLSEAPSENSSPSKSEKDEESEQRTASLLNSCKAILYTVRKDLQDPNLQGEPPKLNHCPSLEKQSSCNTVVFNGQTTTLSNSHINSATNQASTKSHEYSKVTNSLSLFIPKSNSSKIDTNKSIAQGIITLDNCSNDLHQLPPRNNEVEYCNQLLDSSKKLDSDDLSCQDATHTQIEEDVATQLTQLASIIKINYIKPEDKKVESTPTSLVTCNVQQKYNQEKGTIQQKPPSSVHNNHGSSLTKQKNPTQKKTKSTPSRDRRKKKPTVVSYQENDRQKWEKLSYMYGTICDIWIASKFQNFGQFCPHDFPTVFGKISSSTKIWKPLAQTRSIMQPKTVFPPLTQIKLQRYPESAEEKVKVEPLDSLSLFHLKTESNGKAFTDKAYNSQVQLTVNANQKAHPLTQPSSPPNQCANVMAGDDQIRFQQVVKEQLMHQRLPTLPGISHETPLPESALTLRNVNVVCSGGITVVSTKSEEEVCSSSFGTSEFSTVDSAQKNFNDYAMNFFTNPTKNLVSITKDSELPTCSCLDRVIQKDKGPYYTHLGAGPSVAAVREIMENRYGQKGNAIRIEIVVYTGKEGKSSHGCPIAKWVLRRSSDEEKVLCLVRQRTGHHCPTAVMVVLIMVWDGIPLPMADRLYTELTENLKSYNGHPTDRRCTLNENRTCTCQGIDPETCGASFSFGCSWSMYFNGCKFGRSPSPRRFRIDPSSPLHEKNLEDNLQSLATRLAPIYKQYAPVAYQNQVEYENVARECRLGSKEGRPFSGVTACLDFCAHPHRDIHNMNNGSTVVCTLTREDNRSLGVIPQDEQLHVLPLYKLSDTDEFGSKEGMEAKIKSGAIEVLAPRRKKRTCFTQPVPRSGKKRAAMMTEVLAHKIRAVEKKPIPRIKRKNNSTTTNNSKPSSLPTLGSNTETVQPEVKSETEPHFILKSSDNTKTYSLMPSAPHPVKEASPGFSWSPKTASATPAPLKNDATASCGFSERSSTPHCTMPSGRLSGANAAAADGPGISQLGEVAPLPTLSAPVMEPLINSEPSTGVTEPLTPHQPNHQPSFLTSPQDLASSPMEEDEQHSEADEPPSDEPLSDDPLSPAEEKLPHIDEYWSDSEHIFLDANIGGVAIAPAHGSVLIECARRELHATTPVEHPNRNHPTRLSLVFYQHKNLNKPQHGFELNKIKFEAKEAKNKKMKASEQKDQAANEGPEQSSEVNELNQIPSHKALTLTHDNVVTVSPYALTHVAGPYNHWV

B1: endogenous AR in C4-2CON and C4-2ENZ-R cells (receptor, human, UniProt P10275 1-920, looked up)
chain: MEVQLGLGRVYPRPPSKTYRGAFQNLFQSVREVIQNPGPRHPEAASAAPPGASLLLLQQQQQQQQQQQQQQQQQQQQQQQETSPRQQQQQQGEDGSPQAHRRGPTGYLVLDEEQQPSQPQSALECHPERGCVPEPGAAVAASKGLPQQLPAPPDEDDSAAPSTLSLLGPTFPGLSSCSADLKDILSEASTMQLLQQQQQEAVSEGSSSGRAREASGAPTSSKDNYLGGTSTISDNAKELCKAVSVSMGLGVEALEHLSPGEQLRGDCMYAPLLGVPPAVRPTPCAPLAECKGSLLDDSAGKSTEDTAEYSPFKGGYTKGLEGESLGCSGSAAAGSSGTLELPSTLSLYKSGALDEAAAYQSRDYYNFPLALAGPPPPPPPPHPHARIKLENPLDYGSAWAAAAAQCRYGDLASLHGAGAAGPGSGSPSAAASSSWHTLFTAEEGQLYGPCGGGGGGGGGGGGGGGGGGGGGGGEAGAVAPYGYTRPPQGLAGQESDFTAPDVWYPGGMVSRVPYPSPTCVKSEMGPWMDSYSGPYGDMRLETARDHVLPIDYYFPPQKTCLICGDEASGCHYGALTCGSCKVFFKRAAEGKQKYLCASRNDCTIDKFRRKNCPSCRLRKCYEAGMTLGARKLKKLGNLKLQEEGEASSTTSPTEETTQKLTVSHIEGYECQPIFLNVLEAIEPGVVCAGHDNNQPDSFAALLSSLNELGERQLVHVVKWAKALPGFRNLHVDDQMAVIQYSWMGLMVFAMGWRSFTNVNSRMLYFAPDLVFNEYRMHKSRMYSQCVRMRHLSQEFGWLQITPQEFLCMKALLLFSIIPVDGLKNQKFFDELRMNYIKELDRIIACKRKNPTSCSRRFYQLTKLLDSVQPIARELHQFTFDLLIKSHMVSVDFPEMMAEIISVQVPKILSGKVKPIYFHTQ
notes: also called androgen receptor; ARFL
For B1, the binding result in test [1] and in test [2] was “no binding” in each case.

Source of the values: US20210003577A1 (MAYO FOUNDATION FOR MEDICAL EDUCATION AND RESEARCH, published 2021).
